Results: patent US7090834B1, “Vascular endothelial cell growth factor variants and uses thereof” (Genentech, Inc., priority 1999, dated 2006)

How the values were obtained:
[1] = biological target: Flt-1 receptor; test: Flt-1 receptor binding ELISA (inhibition of biotinylated native VEGF binding to Flt-IgG); conditions: for Relative Binding Affinity, FLT-1 Receptor: ratio to native VEGF (8–109): second figure of the cell, fold less binding than native VEGF
Experimental: (§1) Receptor binding assays were performed in 96-well immunoplates (Maxisorp, Nunc-Immunoplate, Nalge Nunc International, Rochester, N.Y.). Each well was coated with 100 μl of a solution containing 2 μg/ml of rabbit F(ab′)2 to human IgG Fc (Jackson ImmunoResearch, West Grove, Pa.) in 50 mM carbonate buffer at pH 9.6 and incubated at 4° C. overnight. The supernatant was then discarded, the wells were washed three times in washing buffer (0.05% Tween 20 in PBS), and the plate was blocked (150 μl per well) with block buffer (0.5% BSA, 0.01% thimerosal in PBS) at room temperature for one hour. The supernatant was discarded, and the wells were washed.
The wells were filled with 100 μl of a solution containing Flt-IgG (a chimeric Flt-human Fc molecule) at 50 ng/ml in assay buffer (0.5% BSA, 0.05% Tween 20 in PBS). The wells were incubated at room temperature for 1 hour and then washed three times in wash buffer (0.05% Tween 20 in PBS).
(§2) Aliquots of the mixture (100 μl) were added to the precoated microtiter wells and the plate was incubated for 2 hours at room temperature. […] The wells were then incubated with 3, 3′, 5,5′-tetramethyl benzidine (0.2 g/liter, Kirkegaard & Perry Laboratories, Gaithersburg, Md.) for about 10 minutes at room temperature. Absorbance was read at 450 nm on a Vmax plate reader (Molecular Devices, Menlo Park, Calif.).
(§3) Titration curves were fit with a four-parameter nonlinear regression curve-fitting program (KaleidaGraph, Synergy Software, Reading, Pa.).

[2] = biological target: KDR receptor (Homo sapiens, UniProt P35968); test: KDR receptor binding ELISA (inhibition of biotinylated native VEGF (8–109) binding); conditions: second figure of the cell, variant midpoint concentration divided by that of native VEGF
Sequence of KDR receptor (P35968 20-327 limits assumed): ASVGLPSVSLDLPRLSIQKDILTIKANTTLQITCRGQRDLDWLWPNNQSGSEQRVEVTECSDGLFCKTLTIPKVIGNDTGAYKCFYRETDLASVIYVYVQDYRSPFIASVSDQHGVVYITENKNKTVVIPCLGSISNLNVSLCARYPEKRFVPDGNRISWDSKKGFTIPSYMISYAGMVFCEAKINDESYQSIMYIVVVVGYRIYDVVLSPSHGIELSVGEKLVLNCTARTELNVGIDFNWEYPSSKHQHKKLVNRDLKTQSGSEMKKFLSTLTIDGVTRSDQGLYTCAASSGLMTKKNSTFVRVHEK
Experimental: as §1, with “containing 8” for “containing 2”, “of a monoclonal antibody” for “of rabbit F(ab′)2”, “to KDR known as MAKD5 (Genentech, South San Francisco, Calif.)” for “to human IgG Fc (Jackson ImmunoResearch, West Grove, Pa.)”, “was” for “was then”
as §2, with “of this” for “of the”, “for 1 hour” for “for 2 hours”, “(0.2 gram/liter;” for “(0.2 g/liter,”
as §3

[3] = biological target: T1, KDR (1-3) (UniProt P35968 20-327, limits assumed); test: competition ELISA vs biotinylated native VEGF (8-109) for KDR (1-3)
T1 construct: domain: domains 1 to 3; Genentech reagent; also called KDR (1-3) monomer; domains 1 to 3 of KDR
T1 sequence (P35968 20-327 limits assumed): as above
Experimental: as §1, with “containing 8” for “containing 2”, “of a monoclonal antibody” for “of rabbit F(ab′)2”, “to KDR known as MAKD5 (Genentech, South San Francisco, Calif.)” for “to human IgG Fc (Jackson ImmunoResearch, West Grove, Pa.)”, “was” for “was then”
as §2, with “of this” for “of the”, “for 1 hour” for “for 2 hours”, “3, 3', 5,5'-tetramethyl” for “3, 3′, 5,5′-tetramethyl”, “(0.2 gram/liter;” for “(0.2 g/liter,”
as §3

Sequence of Flt-1 receptor (P17948 27-327 limits assumed): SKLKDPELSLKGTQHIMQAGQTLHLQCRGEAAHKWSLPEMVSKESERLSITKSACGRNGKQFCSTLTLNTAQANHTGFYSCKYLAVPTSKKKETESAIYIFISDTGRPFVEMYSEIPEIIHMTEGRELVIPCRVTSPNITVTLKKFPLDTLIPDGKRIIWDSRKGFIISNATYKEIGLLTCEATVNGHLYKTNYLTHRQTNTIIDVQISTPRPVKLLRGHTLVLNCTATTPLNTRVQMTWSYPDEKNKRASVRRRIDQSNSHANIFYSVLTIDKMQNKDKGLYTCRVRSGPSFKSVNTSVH

Row | Molecule | IC50 ([1]; first figure of the cell, Flt-IgG, read-out: Relative Binding Affinity, FLT-1 Receptor: concentration at midpoint absorbance) [nM] | Relative Binding Affinity, KDR Receptor: ratio to native VEGF (8–109) [2] | Relative Binding Affinity, FLT-1 Receptor: ratio to native VEGF (8–109) [1] | relative binding affinity (ratio to native VEGF (8-109)) [3] [ratio] | IC50 [3] [nM]
1 | LK-VRB-2s*: VEGF (1–109) variant with D63S/G65M/L66R; KDR selective variant | > 400 | – | – | – | –
2 | LK-VRB-19s (ligand, human, UniProt P15692-4 27-135, looked up, one of the two is probably misprinted) APMAEGGGQNHHEVVKFEDVYRRSSCHPIETLVDIFQEYPDEIEYIFKPSCVPLMRCGGCCNSEMRECVPTEESNITMQIMRIKPHQGQHIGEMSFLQHNKCECRPKKD | – | 7 nM/7 | />35000 | 7 | –
3 | LK-VRB-3s: VEGF (1–109) variant with F17I/M18E/Y21F/Q22K/Y25S (protein) APMAEGGGQNHHEVVKIEDVFKRSSCHPIETLVDIFQEYPDEIEYIFKPSCVPLMRCGGCCNDEGLECVPTEESNITMQIMRIKPHQGQHIGEMSFLQHNKCECRPKKD | – | 1 nM/1 | – | – | –
4 | LK-VRB-6s: VEGF (1–109) variant with D63S/G65A/L66T (protein) APMAEGGGQNHHEVVKFMDVYQRSYCHPIETLVDIFQEYPDEIEYIFKPSCVPLMRCGGCCNSEATECVPTEESNITMQIMRIKPHQGQHIGEMSFLQHNKCECRPKKD | – | 0.5 nM/0.5 | – | – | –
5 | LK-VRB-17s (ligand) APMAEGGGQNHHEVVKFEDVLRRSYCHPIETLVDIFQEYPDEIEYIFKPSCVPLMRCGGCCNSEMRECVPTEESNITMQIMRIKPHQGQHIGEMSFLQHNKCECRPKKD | – | – | />1900 | 130 | –
6 | LK-VRB-23s (ligand, human, UniProt P15692-4 27-135, looked up) APMAEGGGQNHHEVVKFEDVLRRSSCHPIETLVDIFQEYPDEIEYIFKPSCVPLMRCGGCCNDEGRECVPTEESNITMQIMRIKPHQGQHIGEMSFLQHNKCECRPKKD | – | 11 nM/11 | />8500 | 11 | –
7 | LK-VRB-20s (ligand, human, UniProt P15692-4 27-135, looked up) APMAEGGGQNHHEVVKFMDVLRRSSCHPIETLVDIFQEYPDEIEYIFKPSCVPLMRCGGCCNSEMRECVPTEESNITMQIMRIKPHQGQHIGEMSFLQHNKCECRPKKD | – | 2 nM/2 | />10000 | 2 | –
8 | LK-VRB-22s (ligand, human, UniProt P15692-4 27-135, looked up) APMAEGGGQNHHEVVKFEDVLRRSSCHPIETLVDIFQEYPDEIEYIFKPSCVPLMRCGGCCNDEMLECVPTEESNITMQIMRIKPHQGQHIGEMSFLQHNKCECRPKKD | – | 4 nM/4 | />30 | 4 | –
9 | LK-VRB-14s (ligand, human, UniProt P15692-4 27-135, looked up) APMAEGGGQNHHEVVKFMDVLRRSYCHPIETLVDIFQEYPDEIEYIFKPSCVPLMRCGGCCNSEMRECVPTEESNITMQIMRIKPHQGQHIGEMSFLQHNKCECRPKKD | – | 0.5 nM/0.5 | />2900 | 0.5 | –
10 | LK-VRB-13s (ligand, human, UniProt P15692-4 27-135, looked up) APMAEGGGQNHHEVVKFEDVYQRSSCHPIETLVDIFQEYPDEIEYIFKPSCVPLMRCGGCCNSEMRECVPTEESNITMQIMRIKPHQGQHIGEMSFLQHNKCECRPKKD | – | 14 nM/14 | />14000 | 14 | –
11 | LK-VRB-11s (ligand, human, UniProt P15692-4 27-135, looked up) APMAEGGGQNHHEVVKFEDVLQRSYCHPIETLVDIFQEYPDEIEYIFKPSCVPLMRCGGCCNSEMRECVPTEESNITMQIMRIKPHQGQHIGEMSFLQHNKCECRPKKD | – | 2 nM/2 | />14000 | 2 | –
12 | LK-VRB-12s (ligand, human, UniProt P15692-4 27-135, looked up) APMAEGGGQNHHEVVKFEDVYRRSYCHPIETLVDIFQEYPDEIEYIFKPSCVPLMRCGGCCNSEMRECVPTEESNITMQIMRIKPHQGQHIGEMSFLQHNKCECRPKKD | – | 0.4 nM/0.4 | />5600 | 0.4 | –

Further lines, results first:

Row | IC50 ([1]; first figure of the cell, Flt-IgG, read-out: Relative Binding Affinity, FLT-1 Receptor: concentration at midpoint absorbance) [nM] | Relative Binding Affinity, KDR Receptor: ratio to native VEGF (8–109) [2] | Relative Binding Affinity, FLT-1 Receptor: ratio to native VEGF (8–109) [1] | relative binding affinity (ratio to native VEGF (8-109)) [3] [ratio] | IC50 [3] [nM] | Molecule
13 | – | 1 nM/1 | – | – | – | LK-VRB-5s: VEGF (1–109) variant with D63S/L66R (protein) APMAEGGGQNHHEVVKFMDVYQRSYCHPIETLVDIFQEYPDEIEYIFKPSCVPLMRCGGCCNSEGRECVPTEESNITMQIMRIKPHQGQHIGEMSFLQHNKCECRPKKD
14 | – | – | – | 130 | 130 | LK-VRB-18s (ligand) APMAEGGGQNHHEVVKFEDVLQRSSCHPIETLVDIFQEYPDEIEYIFKPSCVPLMRCGGCCNSEMRECVPTEESNITMQIMRIKPHQGQHIGEMSFLQHNKCECRPKKD
15 | – | 1 nM/1 | – | – | – | LK-VRB-4s: VEGF (1–109) variant with F17I/M18E/Y21F/Q22E/Y25I (protein) APMAEGGGQNHHEVVKIEDVFERSICHPIETLVDIFQEYPDEIEYIFKPSCVPLMRCGGCCNDEGLECVPTEESNITMQIMRIKPHQGQHIGEMSFLQHNKCECRPKKD
16 | – | 0.6 nM/0.6 | />1400 | 0.6 | – | LK-VRB-16s (ligand, human, UniProt P15692-4 27-135, looked up) APMAEGGGQNHHEVVKFMDVYRRSSCHPIETLVDIFQEYPDEIEYIFKPSCVPLMRCGGCCNSEMRECVPTEESNITMQIMRIKPHQGQHIGEMSFLQHNKCECRPKKD
17 | – | 2 nM/2 | />21000 | 2 | – | LK-VRB-15s (ligand, human, UniProt P15692-4 27-135, looked up) APMAEGGGQNHHEVVKFMDVLQRSSCHPIETLVDIFQEYPDEIEYIFKPSCVPLMRCGGCCNSEMRECVPTEESNITMQIMRIKPHQGQHIGEMSFLQHNKCECRPKKD
18 | – | 10 nM/10 | />18000 | 10 | – | LK-VRB-24s (ligand, human, UniProt P15692-4 27-135, looked up) APMAEGGGQNHHEVVKFEDVLRRSSCHPIETLVDIFQEYPDEIEYIFKPSCVPLMRCGGCCNSEMLECVPTEESNITMQIMRIKPHQGQHIGEMSFLQHNKCECRPKKD
19 | – | 0.5 nM/0.5 | />2400 | 0.5 | – | LK-VRB-10s (ligand, human, UniProt P15692-4 27-135, looked up) APMAEGGGQNHHEVVKFMDVYQRSSCHPIETLVDIFQEYPDEIEYIFKPSCVPLMRCGGCCNSEMRECVPTEESNITMQIMRIKPHQGQHIGEMSFLQHNKCECRPKKD
20 | – | 3 nM/3 | />5600 | 3 | – | LK-VRB-21s (ligand, human, UniProt P15692-4 27-135, looked up) APMAEGGGQNHHEVVKFEDVLRRSSCHPIETLVDIFQEYPDEIEYIFKPSCVPLMRCGGCCNSEGLECVPTEESNITMQIMRIKPHQGQHIGEMSFLQHNKCECRPKKD
